Data published in US20220033462A1 (ALLOGENE THERAPEUTICS, published 2022).
Positions count from the first letter of the chain named.

B1: N-CAR PD1 (ITSM mut 1) (SEQ ID No 1999 with intracellular domain SEQ ID No 2014) (other)
chain: EVQLQQSGPELVKPGTSVRISCKTSGYTFTEYTIHWVKQSHGKSLEWIGNINPNNGGTTYNQKFEDKATLTVDKSSSTAYMELRSLTSEDSAVYYCAAGWNFDYWGQGTTVTVSSGGGGSGGGGSGGGGSDIVMTQSHKFMSTSVGDRVSIICKASQDVGTAVDWYQQKPGQSPKLLIYWASTRHTGVPDRFTGSGSGTDFTLTITNVQSEDLADYFCQQYNSYPLTFGAGTMLDLKRAAATERRAEVPTAHPSPSPRPAGQFQTLVVGVVGGLLGSLVLLVWVLAVICSRAARGTIGARRTGQPLKEDPSAVPVFSVDYGELDFQWREKTPEPPVPCVPEQTEYSEIVFPSGMGTSSPARRGSADGPRSAQPLRPEDGHCSWPL
B2: N-CAR PD1 (ITSM mut3) (SEQ ID No 1999 with intracellular domain SEQ ID No 2016) (other)
chain: B1 chain with S346A, E347S
B3: N-CAR PD1 (ITSM mut 2) (SEQ ID No 1999 with intracellular domain SEQ ID No 2015) (other)
chain: B1 chain with I348V
B4: N-CAR PD1-KIR2DL2 (SEQ ID No 1999 with intracellular domain SEQ ID No 2017) (other)
chain: EVQLQQSGPELVKPGTSVRISCKTSGYTFTEYTIHWVKQSHGKSLEWIGNINPNNGGTTYNQKFEDKATLTVDKSSSTAYMELRSLTSEDSAVYYCAAGWNFDYWGQGTTVTVSSGGGGSGGGGSGGGGSDIVMTQSHKFMSTSVGDRVSIICKASQDVGTAVDWYQQKPGQSPKLLIYWASTRHTGVPDRFTGSGSGTDFTLTITNVQSEDLADYFCQQYNSYPLTFGAGTMLDLKRAAATERRAEVPTAHPSPSPRPAGQFQTLVVGVVGGLLGSLVLLVWVLAVICSRAARGTIGARRTGQPLKEDPSAVPVFSVDYGELDFQWREKTPEPPVPCVPEQTEYATIVFPSGMGTSSPARRGSADGPRSAQPLRPEDGHCSWPLHRWCSNKKNAAVMDQESAGNRTANSEDSDEQDPQEVTYTQLNHCVFTQRKITRPSQRPKTPPTDIIVYAELPNAESRSKVVSCP
B5: N-CAR CD244 (SEQ ID No 1999 with intracellular domain SEQ ID No 2002) (other)
chain: EVQLQQSGPELVKPGTSVRISCKTSGYTFTEYTIHWVKQSHGKSLEWIGNINPNNGGTTYNQKFEDKATLTVDKSSSTAYMELRSLTSEDSAVYYCAAGWNFDYWGQGTTVTVSSGGGGSGGGGSGGGGSDIVMTQSHKFMSTSVGDRVSIICKASQDVGTAVDWYQQKPGQSPKLLIYWASTRHTGVPDRFTGSGSGTDFTLTITNVQSEDLADYFCQQYNSYPLTFGAGTMLDLKRAAATERRAEVPTAHPSPSPRPAGQFQTLVVGVVGGLLGSLVLLVWVLAVIWRRKRKEKQSETSPKEFLTIYEDVKDLKTRRNHEQEQTFPGGGSTIYSMIQSQSSAPTSQEPAYTLYSLIQPSRKSGSRKRNHSPSFNSTIYEVIGKSQPKAQNPARLSRKELENFDVYS
B6: N-CAR PD1-CTLA4 (SEQ ID No 1999 with intracellular domain SEQ ID No 2003) (other)
chain: EVQLQQSGPELVKPGTSVRISCKTSGYTFTEYTIHWVKQSHGKSLEWIGNINPNNGGTTYNQKFEDKATLTVDKSSSTAYMELRSLTSEDSAVYYCAAGWNFDYWGQGTTVTVSSGGGGSGGGGSGGGGSDIVMTQSHKFMSTSVGDRVSIICKASQDVGTAVDWYQQKPGQSPKLLIYWASTRHTGVPDRFTGSGSGTDFTLTITNVQSEDLADYFCQQYNSYPLTFGAGTMLDLKRAAATERRAEVPTAHPSPSPRPAGQFQTLVVGVVGGLLGSLVLLVWVLAVICSRAARGTIGARRTGQPLKEDPSAVPVFSVDYGELDFQWREKTPEPPVPCVPEQTEYATIVFPSGMGTSSPARRGSADGPRSAQPLRPEDGHCSWPLAVSLSKMLKKRSPLTTGVYVKMPPTEPECEKQFQPYFIPIN
B7: N-CAR BTLA (SEQ ID No 1999 with intracellular domain SEQ ID No 2001) (other)
chain: EVQLQQSGPELVKPGTSVRISCKTSGYTFTEYTIHWVKQSHGKSLEWIGNINPNNGGTTYNQKFEDKATLTVDKSSSTAYMELRSLTSEDSAVYYCAAGWNFDYWGQGTTVTVSSGGGGSGGGGSGGGGSDIVMTQSHKFMSTSVGDRVSIICKASQDVGTAVDWYQQKPGQSPKLLIYWASTRHTGVPDRFTGSGSGTDFTLTITNVQSEDLADYFCQQYNSYPLTFGAGTMLDLKRAAATERRAEVPTAHPSPSPRPAGQFQTLVVGVVGGLLGSLVLLVWVLAVIRRHQGKQNELSDTAGREINLVDAHLKSEQTEASTRQNSQVLLSETGIYDNDPDLCFRMQEGSEVYSNPCLEENKPGIVYASLNHSVIGPNSRLARNVKEAPTEYASICVRS
B8: N-CAR PD1-LAG3 (SEQ ID No 1999 with intracellular domain SEQ ID No 2004) (other)
chain: EVQLQQSGPELVKPGTSVRISCKTSGYTFTEYTIHWVKQSHGKSLEWIGNINPNNGGTTYNQKFEDKATLTVDKSSSTAYMELRSLTSEDSAVYYCAAGWNFDYWGQGTTVTVSSGGGGSGGGGSGGGGSDIVMTQSHKFMSTSVGDRVSIICKASQDVGTAVDWYQQKPGQSPKLLIYWASTRHTGVPDRFTGSGSGTDFTLTITNVQSEDLADYFCQQYNSYPLTFGAGTMLDLKRAAATERRAEVPTAHPSPSPRPAGQFQTLVVGVVGGLLGSLVLLVWVLAVICSRAARGTIGARRTGQPLKEDPSAVPVFSVDYGELDFQWREKTPEPPVPCVPEQTEYATIVFPSGMGTSSPARRGSADGPRSAQPLRPEDGHCSWPLHLWRRQWRPRRFSALEQGIHPPQAQSKIEELEQEPEPEPEPEPEPEPEPEPEQL
B9: N-CAR PD1 (SEQ ID No 1999 with intracellular domain SEQ ID No 2000) (other)
chain: B1 chain with S346A, E347T
B10: P-CAR2 (SEQ ID No 2020) (other)
chain: EVKLQQSGAELVRPGSSVKISCKASGYAFSSYWMNWVKQRPGQGLEWIGQIYPGDGDTNYNGKFKGQATLTADKSSSTAYMQLSGLTSEDSAVYFCARKTISSVVDFYFDYWGQGTTVTVSSGGGGSGGGGSGGGGSDIELTQSPKFMSTSVGDRVSVTCKASQNVGTNVAWYQQKPGQSPKPLIYSATYRNSGVPDRFTGSGSGTDFTLTITNVQSKDLADYFCQQYNRYPYTSGGGTKLEIKRAAAIEVMYPPPYLDNEKSNGTIIHVKGKHLCPSPLFPGPSKPFWVLVVVGGVLACYSLLVTVAFIIFWVRSKRSRLLHSDYMNMTPRRPGPTRKHYQPYAPPRDFAAYRSRVKFSRSADAPAYQQGQNQLYNELNLGRREEYDVLDKRRGRDPEMGGKPRRKNPQEGLYNELQKDKMAEAYSEIGMKGERRRGKGHDGLYQGLSTATKDTYDALHMQALPPR
notes: Chimeric antigen receptor on the surface of transduced reporter Jurkat cells; also called positive signaling CAR with scFv from anti-CD19 antibody SJ25C1

target: T1, biotinylated recombinant human PSMA-human IgG1 Fc fusion protein (human, UniProt Q04609 44-750, biotinylated (sites not given)); test: flow cytometry, reporter Jurkat cells co-expressing P-CAR1 (FIGS. 1-4)
T1 construct: Staining reagent; not shown: human IgG1 Fc
T1 sequence (Q04609 44-750 limits assumed): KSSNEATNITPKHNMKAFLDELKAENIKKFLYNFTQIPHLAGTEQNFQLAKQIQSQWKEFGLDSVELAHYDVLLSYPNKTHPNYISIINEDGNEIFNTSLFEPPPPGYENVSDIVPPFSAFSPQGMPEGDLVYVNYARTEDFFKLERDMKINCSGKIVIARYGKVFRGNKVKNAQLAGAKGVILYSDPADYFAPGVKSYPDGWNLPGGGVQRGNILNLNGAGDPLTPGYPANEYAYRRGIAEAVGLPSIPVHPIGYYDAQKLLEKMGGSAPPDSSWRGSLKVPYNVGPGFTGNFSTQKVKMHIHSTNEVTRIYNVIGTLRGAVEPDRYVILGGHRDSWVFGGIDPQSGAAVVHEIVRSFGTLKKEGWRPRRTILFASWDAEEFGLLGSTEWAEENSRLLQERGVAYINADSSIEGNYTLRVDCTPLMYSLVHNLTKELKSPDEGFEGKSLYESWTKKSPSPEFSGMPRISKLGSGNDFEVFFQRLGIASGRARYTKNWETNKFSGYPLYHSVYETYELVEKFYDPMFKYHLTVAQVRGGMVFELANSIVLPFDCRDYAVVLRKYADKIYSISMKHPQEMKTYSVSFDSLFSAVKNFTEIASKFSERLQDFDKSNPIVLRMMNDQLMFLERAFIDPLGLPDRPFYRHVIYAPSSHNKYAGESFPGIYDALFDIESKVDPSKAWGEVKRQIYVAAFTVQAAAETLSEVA

Binding result, binds:
B1
B2
B3
B4

target: T1, biotinylated recombinant human …; test: flow cytometry, reporter Jurkat cells co-expressing P-CAR2 (FIGS. 6-9)

Binding result, binds:
B5
B6
B7
B8
B9

target: T2, recombinant human CD19-mouse IgG Fc fusion protein (human; mouse, UniProt P15391 20-291, limits assumed); test: flow cytometry, NFAT-/NFkB-luciferase reporter Jurkat cells expressing P-CAR2 (FIGS. 6-9)
T2 construct: Staining reagent; not shown: mouse IgG Fc
T2 sequence (looked up): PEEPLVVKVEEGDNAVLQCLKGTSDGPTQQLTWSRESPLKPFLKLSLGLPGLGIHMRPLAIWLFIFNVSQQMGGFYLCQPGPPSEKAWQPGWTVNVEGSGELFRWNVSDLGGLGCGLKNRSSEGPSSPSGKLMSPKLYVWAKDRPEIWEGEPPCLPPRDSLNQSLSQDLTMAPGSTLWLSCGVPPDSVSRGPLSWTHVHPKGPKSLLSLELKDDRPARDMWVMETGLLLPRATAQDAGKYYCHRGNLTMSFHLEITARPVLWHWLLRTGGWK

Binding result, binds:
B10
